Measurements as given in patent US20250121081A1 (JIANGSU HENGRUI PHARMACEUTICALS, published 2025).

Key:
[1] = target: T1, mouse ROR1-His (Cat. #RO1-M522, Acro) antigen (mouse, UniProt Q9Z139 30-403); experiment: SPR (Biacore T200), IgG captured on Protein A chip, antigen as analyte
T1 construct: Bought His-tagged antigen; not shown: His tag
Procedure: (§1) The anti-ROR1 antibody was analyzed by Biacore T200 (Cytiva) for affinity characterization and binding kinetics. The IgG antibody was subjected to affinity capture by a Protein A biosensor chip (Cat. #29127556, Cytiva), and then a mouse ROR1-His (Cat. #RO1-M522, Acro) antigen and a rat ROR1-His (Cat. #RO1-R5221, Acro) antigen that were diluted with the HBS-EP buffer (pH 7.4, Cat. #BR-1006-69, Cytiva) to a series of concentrations were allowed to flow over the surface of the chip. The antigen-antibody binding kinetics was tracked for 3 min and the dissociation kinetics was tracked for 15 min. Reaction signals were detected in real time using a Biacore T200 instrument to obtain binding and dissociation curves. After dissociation was complete in each cycle, the biosensor chip was washed with 10 mM Gly-HCl at pH 1.5 (Cat. #BR-1003-54, Cytiva) for regeneration. The data obtained were analyzed with BIAevaluation software of Cytiva using a 1:1 (Langmuir) binding model.

[2] = target: T2, rat ROR1-His (Cat. #RO1-R5221, Acro) antigen (rat, UniProt D3ZZ97 30-406); experiment: as above
T2 construct: Bought His-tagged antigen; not shown: His tag
Procedure: as §1

[3] = target: T3, human ROR1 (Cat. #19771-H08H, Sino Biological) antigen (human, UniProt Q01973 30-403); experiment: SPR (Biacore T200), IgG captured on Protein A chip, human ROR1 as analyte, 1:1 model
T3 construct: Bought soluble antigen used as SPR analyte
Procedure: as §1, with “a human ROR1” for “a mouse ROR1-His”, “(Cat. #19771-H08H, Sino Biological)” for “(Cat. #RO1-M522, Acro) antigen and a rat ROR1-His (Cat. #RO1-R5221, Acro)”, “that was” for “that were”, “concentrations was” for “concentrations were”, “for 10” for “for 15”

[4] = target: T4, human ROR1 on cells (ROR1-CHO-K1, Jeko-1, MDA-MB-231, HCC827/ROR1) (human, UniProt Q01973 30-937); experiment: cell-based or functional assay
[5] = target: T4, human ROR1 on cells (ROR1-CHO-K1, …); experiment: cell-based or functional assay; remark: listed apart in the source
[6] = target: T4, human ROR1 on cells (ROR1-CHO-K1, …); experiment: flow cytometry on Jeko-1 cells
Procedure: (§2) ROR1-CHO-K1 cells (Example 1), Jeko-1 cells (ATCC, CRL-3006), or MDA-MB-231 cells (ATCC, CRM-HTB-26) were separately suspended in a FACS buffer (2% fetal bovine serum (Gibco, 10099141) and PBS at pH 7.4 (Sigma, P4417-100TAB) to prepare a cell suspension at 1× 10⁶ cells/mL, and the suspension was then added to a 96-well round-bottom plate at 100 μL/well. After centrifugation and removal of the supernatant, the test antibody that was diluted with the FACS buffer to different concentrations was added at 50 μL/well. The plate was incubated in the dark in a 4° C. refrigerator for 1 h. The plate was washed 3 times with the FACS buffer by centrifugation at 500 g, and a fluorescent secondary antibody at a working concentration was added. The plate was incubated in the dark in the 4° C. refrigerator for 40 min. The plate was washed 3 times with the FACS buffer by centrifugation at 500 g and tested on a BD FACSCantoII flow cytometer for geometric mean fluorescence intensity, and the EC₅₀ values for the binding of the antibody to the cells expressing ROR1 were calculated.

[7] = target: T4, human ROR1 on cells (ROR1-CHO-K1, …); experiment: flow cytometry on MDA-MB-231 cells
Procedure: as §2

[8] = target: T4, human ROR1 on cells (ROR1-CHO-K1, …); experiment: flow cytometry on ROR1-CHO-K1 cells
Procedure: as §2

[9] = target: T2, rat ROR1-His (Cat. #RO1-R5221, Acro) …; experiment: SPR (Biacore T200), IgG captured on Protein A chip, rat ROR1-His as analyte, 1:1 model
Procedure: as §1

[10] = target: T1, mouse ROR1-His (Cat. #RO1-M522, Acro) …; experiment: SPR (Biacore T200), IgG captured on Protein A chip, mouse ROR1-His as analyte, 1:1 model
Procedure: as §1

T4 sequence (Q01973 30-937 limits assumed): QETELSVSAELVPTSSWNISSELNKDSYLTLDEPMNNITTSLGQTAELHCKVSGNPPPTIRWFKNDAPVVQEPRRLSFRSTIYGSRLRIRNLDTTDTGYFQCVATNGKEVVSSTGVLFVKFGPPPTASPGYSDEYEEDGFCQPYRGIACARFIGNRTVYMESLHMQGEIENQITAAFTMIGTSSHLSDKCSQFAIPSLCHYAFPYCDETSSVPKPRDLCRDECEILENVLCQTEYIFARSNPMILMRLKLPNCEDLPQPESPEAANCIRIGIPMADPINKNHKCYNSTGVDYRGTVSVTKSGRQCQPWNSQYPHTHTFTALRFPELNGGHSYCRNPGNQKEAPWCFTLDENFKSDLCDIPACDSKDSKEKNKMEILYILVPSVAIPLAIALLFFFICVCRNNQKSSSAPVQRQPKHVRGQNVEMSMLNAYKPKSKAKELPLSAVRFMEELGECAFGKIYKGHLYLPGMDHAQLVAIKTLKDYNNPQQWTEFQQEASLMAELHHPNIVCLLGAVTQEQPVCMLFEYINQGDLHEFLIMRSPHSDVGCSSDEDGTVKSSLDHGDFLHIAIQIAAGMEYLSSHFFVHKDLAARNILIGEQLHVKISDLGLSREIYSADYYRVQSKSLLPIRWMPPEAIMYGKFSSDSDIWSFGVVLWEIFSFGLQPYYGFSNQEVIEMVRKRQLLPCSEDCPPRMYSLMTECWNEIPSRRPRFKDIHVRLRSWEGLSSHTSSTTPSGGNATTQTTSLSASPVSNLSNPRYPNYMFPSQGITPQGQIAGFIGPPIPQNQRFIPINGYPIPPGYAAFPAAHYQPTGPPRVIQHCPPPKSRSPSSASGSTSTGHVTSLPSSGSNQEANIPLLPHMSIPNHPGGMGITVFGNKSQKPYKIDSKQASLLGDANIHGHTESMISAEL
T1 sequence (Q9Z139 30-403 limits assumed): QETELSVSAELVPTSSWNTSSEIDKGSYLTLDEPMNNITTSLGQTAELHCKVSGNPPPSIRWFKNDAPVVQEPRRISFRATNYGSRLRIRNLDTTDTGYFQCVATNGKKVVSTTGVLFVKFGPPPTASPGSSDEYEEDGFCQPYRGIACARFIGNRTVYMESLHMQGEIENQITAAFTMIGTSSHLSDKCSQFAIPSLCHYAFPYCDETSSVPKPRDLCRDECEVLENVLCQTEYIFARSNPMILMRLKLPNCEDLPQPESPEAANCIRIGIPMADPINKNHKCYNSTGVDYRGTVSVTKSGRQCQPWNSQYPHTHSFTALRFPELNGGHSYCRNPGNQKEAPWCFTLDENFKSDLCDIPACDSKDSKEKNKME
T3 sequence (Q01973 30-403 limits assumed): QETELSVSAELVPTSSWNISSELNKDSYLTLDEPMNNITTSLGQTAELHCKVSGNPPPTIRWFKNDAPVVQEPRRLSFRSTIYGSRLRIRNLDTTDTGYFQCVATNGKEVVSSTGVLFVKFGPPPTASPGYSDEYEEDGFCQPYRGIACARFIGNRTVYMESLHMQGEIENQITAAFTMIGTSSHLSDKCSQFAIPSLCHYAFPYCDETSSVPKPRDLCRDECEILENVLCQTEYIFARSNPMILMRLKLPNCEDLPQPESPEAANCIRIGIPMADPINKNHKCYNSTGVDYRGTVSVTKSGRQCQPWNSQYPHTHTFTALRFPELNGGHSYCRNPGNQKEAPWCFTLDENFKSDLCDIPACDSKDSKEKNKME

Row | Binder | Kd [3] [nM] | koff [3] [s⁻¹] | kon [3] [M⁻¹ s⁻¹] | IC50 (nM), killing of HCC827/ROR1 (+++) cells [4] [nM] | IC50 (nM), killing of Jeko-1 (+) cells [4] [nM] | IC50 (nM), killing of MDA-MB-231 (+) cells [4] [nM] | other results
1 | anti-ROR1 antibody Ab1 in WO2018237335 (positive control) (antibody, human IgG1, kappa, V domains shown, Positive control antibody; also called Abl) VH: QVQLQESGPGLVKPSQTLSLTCTVSGYAFTAYNIHWVRQAPGQGLEWMGSFDPYDGGSSYNQKFKDRLTISKDTSKNQVVLTMTNMDPVDTATYYCARGWYYFDYWGHGTLVTVSS VL: DIVMTQTPLSLPVTPGEPASISCRASKSISKYLAWYQQKPGQAPRLLIYSGSTLQSGIPPRFSGSGYGTDFTLTINNIESEDAAYYFCQQHDESPYTFGEGTKVEIKR | 91 | 0.0546 | 600000 | – | – | – | binding result [1]: no binding; binding result [2]: no binding
2 | ADC-5 (antibody 347 conjugated to compound 9A, n=3.99) (antibody, human IgG1, kappa, V domains shown, linker-drug compound 9A conjugated after TCEP reduction; average drug loading n=3.99 per antibody; sites not stated) VH: QVQLVQSGAEVKKPGSSVKVSCKASGYTFTDYYISWVRQGPGQGLEWMGGINAGNGNTNYAQKFQGRVTITADESTSTAYMELSSLRSEDTAVYYCASPGWDVFDIWGQGTMVTVSS VL: DIQMTQSPSPLSASVGDRVTITCQASQDISNYLNWYQQKPGKAPKLLIYDASNLETGVPSRFSGSGSGTDFTFTISSLQPEDIATYYCQQHEDLPITFGQGTRLEIKR | – | – | – | 4.36 | 58.1 | 349 | –
3 | fully human ROR1 antibody 347 (antibody, human IgG1, kappa, V domains shown, Full-length human IgG1/kappa) VH: QVQLVQSGAEVKKPGSSVKVSCKASGYTFTDYYISWVRQGPGQGLEWMGGINAGNGNTNYAQKFQGRVTITADESTSTAYMELSSLRSEDTAVYYCASPGWDVFDIWGQGTMVTVSS VL: DIQMTQSPSPLSASVGDRVTITCQASQDISNYLNWYQQKPGKAPKLLIYDASNLETGVPSRFSGSGSGTDFTFTISSLQPEDIATYYCQQHEDLPITFGQGTRLEIKR | 1.18 | 0.00273 | 2.31e+06 | – | – | – | IC50 (nM) (DT3C endocytosis killing on ROR1-CHOK1) [5]: 0.596 nM; EC50 [6]: 0.098 nM; EC50 [7]: 0.094 nM; EC50 [8]: 0.502 nM; Kd [9]: 0.0315 nM; koff [9]: 0.00115 s⁻¹; kon [9]: 3.66e+07 M⁻¹ s⁻¹; Kd [10]: 0.238 nM; koff [10]: 0.000676 s⁻¹; kon [10]: 2.84e+06 M⁻¹ s⁻¹
4 | ADC-4 (antibody 347 conjugated to compound 9A, n=7.39) (antibody, human IgG1, kappa, V domains shown, linker-drug compound 9A conjugated after TCEP reduction; average drug loading n=7.39 per antibody; sites not stated) VH: QVQLVQSGAEVKKPGSSVKVSCKASGYTFTDYYISWVRQGPGQGLEWMGGINAGNGNTNYAQKFQGRVTITADESTSTAYMELSSLRSEDTAVYYCASPGWDVFDIWGQGTMVTVSS VL: DIQMTQSPSPLSASVGDRVTITCQASQDISNYLNWYQQKPGKAPKLLIYDASNLETGVPSRFSGSGSGTDFTFTISSLQPEDIATYYCQQHEDLPITFGQGTRLEIKR | – | – | – | 1.36 | 17.4 | 146 | –
